Laboratory results reported in US20190017046A1.

How the values were obtained:
[1] = target: lysozyme, fluorescence-labeled with Alexa Fluor 488; test: grade of lysozyme carrying rate in the summary table (A: equal to or higher than 50%)
[2] = target: lysozyme, fluorescence-labeled with Alexa Fluor 488; test: fluorescent lysozyme retained in the sponge after 3 h in 10x diluted PBS; supernatant fluorescence, plate reader
[3] = target: lysozyme, fluorescence-labeled with Alexa Fluor 488; test: grade of lysozyme carrying rate in the summary table (B: 25% or higher and less than 50%)
[4] = target: lysozyme, fluorescence-labeled with Alexa Fluor 488; test: grade of lysozyme carrying rate in the summary table (C: less than 25%)

member for a preparation "A": thermally crosslinked substance of CBE3 and succinylated CBE3, molar ratio of CBE3 to succinylated CBE3 = 1 to 3
lysozyme carrying rate [1]: > 50%
lysozyme carrying rate (actual measurement value) [2]: 71%

member for a preparation "B": thermally crosslinked substance of CBE3 and succinylated CBE3, molar ratio of CBE3 to succinylated CBE3 = 1 to 1
lysozyme carrying rate (actual measurement value) [2]: 66%

member for a preparation "C": thermally crosslinked substance of CBE3 and succinylated CBE3, molar ratio of CBE3 to succinylated CBE3 = 3 to 1
lysozyme carrying rate [3]: 25 to 50%
lysozyme carrying rate (actual measurement value) [2]: 38%

member for a preparation "G": thermally crosslinked CBE3 only, molar ratio of CBE3 to succinylated CBE3 = 1 to 0
lysozyme carrying rate [4]: < 25%
lysozyme carrying rate (actual measurement value) [2]: 8%
